Assay results taken from IntAct's records for PubMed 29039417.

B1: BBSome complex member BBS4 (Homo sapiens), Q96RK4 (parent)
chain: MAEERVATRTQFPVSTESQKPRQKKAPEFPILEKQNWLIHLHYIRKDYEACKAVIKEQLQETQGLCEYAIYVQALIFRLEGNIQESLELFQTCAVLSPQSADNLKQVARSLFLLGKHKAAIEVYNEAAKLNQKDWEISHNLGVCYIYLKQFNKAQDQLHNALNLNRHDLTYIMLGKIHLLEGDLDKAIEVYKKAVEFSPENTELLTTLGLLYLQLGIYQKAFEHLGNALTYDPTNYKAILAAGSMMQTHGDFDVALTKYRVVACAVPESPPLWNNIGMCFFGKKKYVAAISCLKRANYLAPFDWKILYNLGLVHLTMQQYASAFHFLSAAINFQPKMGELYMLLAVALTNLEDIENAKRAYAEAVHLDKCNPLVNLNYAVLLYNQGEKKNALAQYQEMEKKVSLLKDNSSLEFDSEMVEMAQKLGAALQVGEALVWTKPVKDPKSKHQTTSTSKPASFQQPLGSNQALGQAMSSAAAYRTLPSGAGGTSQFTKPPSLPLEPEPAVESSPTETSEQIREK
partner: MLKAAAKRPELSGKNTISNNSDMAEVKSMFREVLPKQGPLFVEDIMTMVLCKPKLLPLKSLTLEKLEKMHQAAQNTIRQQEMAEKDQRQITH

Variants of: B1
Details: with bbip1_human BBIP1, A8MTZ0

Effect of a mutation on the interaction, with no effect:
MAEERVATRTQFPVSTESQKPRQKKAPEFPILEKQNWLIHLHYIRKDYEACKAVIKEQLQETQGLCEYAIYVQALIFRLEGNIQESLELFQTCAVLSPQSADNLKQVARSLFLLGKHKAAIEVYNEAAKLNQKDWEISHNLGVCYIYLKQFNKAQDQLHNALNLNRHDLTYIMLGKIHLLEGDLDKAIEVYKKAVEFSPENTELLTTLGLLYLQLGIYQKAFEHLGNALTYDPTNYKAILAAGSMMQTHGDFDVALTKYRVVACAVPESPPLWNNIGMCFFGKKKYVAAISCLKRANYLAPFDWKILYNLGLVHLTMQQYASAFHFLSAAINFQPKMGELYMLLAVALTNLEDIENAKRAYAEAVHLDKCNPLVNLNYAVLLYNQGEKKNALAQYQEMEKKVSLLKDNSSLEFDSEMVEMAQKLGAALQVGEALEWTKPVKDPKSKHQTTSTSKPASFQQPLGSNQALGQAMSSAAAYRTLPSGAGGTSQFTKPPSLPLEPEPAVESSPTETSEQIREK [V435E]
MAEERVATRTQFPVSTESQKPRQKKAPEFPILEKQNWLIHLHYIRKDYEACKAVIKEQLQETQGLCEYAIYVQALIFRLEGNIQESLELFQTCAVLSPQSADNLKQVARSLFLLGKHKAAIEVYNEAAKLNQKDWEISHNLGVCYIYLKQFNKAQDQLHNALNLNRHDLTYIMLGKIHLLEGDLDKAIEVYKKAVEFSPENTELLTTLGLLYLQLGIYQKAFEHLGNALTYDPTNYKAILAAGSMMQTHGDFDVALTKYRVVACAVPESPPLWNNIGMCFFGKKKYVAAISCLKRANYLAPFDWKILYNLGLVHLTMQQYASAFHFLSAAINFQPKMGELYMLLAVALTNLEDIENAKRAYAEAVHLDKCNPLVNLNYAVLLYNQGEKKNALAQYQEMEKKVSLLKDNSSLEFDSEMVEMAQKLGAALQVGEALKWTKPVKDPKSKHQTTSTSKPASFQQPLGSNQALGQAMSSAAAYRTLPSGAGGTSQFTKPPSLPLEPEPAVESSPTETSEQIREK [V435K]
MAEERVATRTQFPVSTESQKPRQKKAPEFPILEKQNWLIHLHYIRKDYEACKAVIKEQLQETQGLCEYAIYVQALIFRLEGNIQESLELFQTCAVLSPQSADNLKQVARSLFLLGKHKAAIEVYNEAAKLNQKDWEISHNLGVCYIYLKQFNKAQDQLHNALNLNRHDLTYIMLGKIHLLEGDLDKAIEVYKKAVEFSPENTELLTTLGLLYLQLGIYQKAFEHLGNALTYDPTNYKAILAAGSMMQTHGDFDVALTKYRVVACAVPESPPLWNNIGMCFFGKKKYVAAISCLKRANYLAPFDWKILYNLGLVHLTMQQYASAFHFLSAAINFQPKMGELYMLLAVALTNLEDIENAKRAYAEAVHLDKCNPLVNLNYAVLLYNQGEKKNALAQYQEMEKKVSLLKDNSSLEFDSEMVEMAQKLGAALQVGEALVATKPVKDPKSKHQTTSTSKPASFQQPLGSNQALGQAMSSAAAYRTLPSGAGGTSQFTKPPSLPLEPEPAVESSPTETSEQIREK [W436A]
MAEERVATRTQFPVSTESQKPRQKKAPEFPILEKQNWLIHLHYIRKDYEACKAVIKEQLQETQGLCEYAIYVQALIFRLEGNIQESLELFQTCAVLSPQSADNLKQVARSLFLLGKHKAAIEVYNEAAKLNQKDWEISHNLGVCYIYLKQFNKAQDQLHNALNLNRHDLTYIMLGKIHLLEGDLDKAIEVYKKAVEFSPENTELLTTLGLLYLQLGIYQKAFEHLGNALTYDPTNYKAILAAGSMMQTHGDFDVALTKYRVVACAVPESPPLWNNIGMCFFGKKKYVAAISCLKRANYLAPFDWKILYNLGLVHLTMQQYASAFHFLSAAINFQPKMGELYMLLAVALTNLEDIENAKRAYAEAVHLDKCNPLVNLNYAVLLYNQGEKKNALAQYQEMEKKVSLLKDNSSLEFDSEMVEMAQKLGAALQVGEALVETKPVKDPKSKHQTTSTSKPASFQQPLGSNQALGQAMSSAAAYRTLPSGAGGTSQFTKPPSLPLEPEPAVESSPTETSEQIREK [W436E]
MAEERVATRTQFPVSTESQKPRQKKAPEFPILEKQNWLIHLHYIRKDYEACKAVIKEQLQETQGLCEYAIYVQALIFRLEGNIQESLELFQTCAVLSPQSADNLKQVARSLFLLGKHKAAIEVYNEAAKLNQKDWEISHNLGVCYIYLKQFNKAQDQLHNALNLNRHDLTYIMLGKIHLLEGDLDKAIEVYKKAVEFSPENTELLTTLGLLYLQLGIYQKAFEHLGNALTYDPTNYKAILAAGSMMQTHGDFDVALTKYRVVACAVPESPPLWNNIGMCFFGKKKYVAAISCLKRANYLAPFDWKILYNLGLVHLTMQQYASAFHFLSAAINFQPKMGELYMLLAVALTNLEDIENAKRAYAEAVHLDKCNPLVNLNYAVLLYNQGEKKNALAQYQEMEKKVSLLKDNSSLEFDSEMVEMAQKLGAALQVGEALVKTKPVKDPKSKHQTTSTSKPASFQQPLGSNQALGQAMSSAAAYRTLPSGAGGTSQFTKPPSLPLEPEPAVESSPTETSEQIREK [W436K]
MAEERVATRTQFPVSTESQKPRQKKAPEFPILEKQNWLIHLHYIRKDYEACKAVIKEQLQETQGLCEYAIYVQALIFRLEGNIQESLELFQTCAVLSPQSADNLKQVARSLFLLGKHKAAIEVYNEAAKLNQKDWEISHNLGVCYIYLKQFNKAQDQLHNALNLNRHDLTYIMLGKIHLLEGDLDKAIEVYKKAVEFSPENTELLTTLGLLYLQLGIYQKAFEHLGNALTYDPTNYKAILAAGSMMQTHGDFDVALTKYRVVACAVPESPPLWNNIGMCFFGKKKYVAAISCLKRANYLAPFDWKILYNLGLVHLTMQQYASAFHFLSAAINFQPKMGELYMLLAVALTNLEDIENAKRAYAEAVHLDKCNPLVNLNYAVLLYNQGEKKNALAQYQEMEKKVSLLKDNSSLEFDSEMVEMAQKLGAALQVGEALVWAKPVKDPKSKHQTTSTSKPASFQQPLGSNQALGQAMSSAAAYRTLPSGAGGTSQFTKPPSLPLEPEPAVESSPTETSEQIREK [T437A]
MAEERVATRTQFPVSTESQKPRQKKAPEFPILEKQNWLIHLHYIRKDYEACKAVIKEQLQETQGLCEYAIYVQALIFRLEGNIQESLELFQTCAVLSPQSADNLKQVARSLFLLGKHKAAIEVYNEAAKLNQKDWEISHNLGVCYIYLKQFNKAQDQLHNALNLNRHDLTYIMLGKIHLLEGDLDKAIEVYKKAVEFSPENTELLTTLGLLYLQLGIYQKAFEHLGNALTYDPTNYKAILAAGSMMQTHGDFDVALTKYRVVACAVPESPPLWNNIGMCFFGKKKYVAAISCLKRANYLAPFDWKILYNLGLVHLTMQQYASAFHFLSAAINFQPKMGELYMLLAVALTNLEDIENAKRAYAEAVHLDKCNPLVNLNYAVLLYNQGEKKNALAQYQEMEKKVSLLKDNSSLEFDSEMVEMAQKLGAALQVGEALVWEKPVKDPKSKHQTTSTSKPASFQQPLGSNQALGQAMSSAAAYRTLPSGAGGTSQFTKPPSLPLEPEPAVESSPTETSEQIREK [T437E]
MAEERVATRTQFPVSTESQKPRQKKAPEFPILEKQNWLIHLHYIRKDYEACKAVIKEQLQETQGLCEYAIYVQALIFRLEGNIQESLELFQTCAVLSPQSADNLKQVARSLFLLGKHKAAIEVYNEAAKLNQKDWEISHNLGVCYIYLKQFNKAQDQLHNALNLNRHDLTYIMLGKIHLLEGDLDKAIEVYKKAVEFSPENTELLTTLGLLYLQLGIYQKAFEHLGNALTYDPTNYKAILAAGSMMQTHGDFDVALTKYRVVACAVPESPPLWNNIGMCFFGKKKYVAAISCLKRANYLAPFDWKILYNLGLVHLTMQQYASAFHFLSAAINFQPKMGELYMLLAVALTNLEDIENAKRAYAEAVHLDKCNPLVNLNYAVLLYNQGEKKNALAQYQEMEKKVSLLKDNSSLEFDSEMVEMAQKLGAALQVGEALVWKKPVKDPKSKHQTTSTSKPASFQQPLGSNQALGQAMSSAAAYRTLPSGAGGTSQFTKPPSLPLEPEPAVESSPTETSEQIREK [T437K]
MAEERVATRTQFPVSTESQKPRQKKAPEFPILEKQNWLIHLHYIRKDYEACKAVIKEQLQETQGLCEYAIYVQALIFRLEGNIQESLELFQTCAVLSPQSADNLKQVARSLFLLGKHKAAIEVYNEAAKLNQKDWEISHNLGVCYIYLKQFNKAQDQLHNALNLNRHDLTYIMLGKIHLLEGDLDKAIEVYKKAVEFSPENTELLTTLGLLYLQLGIYQKAFEHLGNALTYDPTNYKAILAAGSMMQTHGDFDVALTKYRVVACAVPESPPLWNNIGMCFFGKKKYVAAISCLKRANYLAPFDWKILYNLGLVHLTMQQYASAFHFLSAAINFQPKMGELYMLLAVALTNLEDIENAKRAYAEAVHLDKCNPLVNLNYAVLLYNQGEKKNALAQYQEMEKKVSLLKDNSSLEFDSEMVEMAQKLGAALQVGEALVWTAPVKDPKSKHQTTSTSKPASFQQPLGSNQALGQAMSSAAAYRTLPSGAGGTSQFTKPPSLPLEPEPAVESSPTETSEQIREK [K438A]
MAEERVATRTQFPVSTESQKPRQKKAPEFPILEKQNWLIHLHYIRKDYEACKAVIKEQLQETQGLCEYAIYVQALIFRLEGNIQESLELFQTCAVLSPQSADNLKQVARSLFLLGKHKAAIEVYNEAAKLNQKDWEISHNLGVCYIYLKQFNKAQDQLHNALNLNRHDLTYIMLGKIHLLEGDLDKAIEVYKKAVEFSPENTELLTTLGLLYLQLGIYQKAFEHLGNALTYDPTNYKAILAAGSMMQTHGDFDVALTKYRVVACAVPESPPLWNNIGMCFFGKKKYVAAISCLKRANYLAPFDWKILYNLGLVHLTMQQYASAFHFLSAAINFQPKMGELYMLLAVALTNLEDIENAKRAYAEAVHLDKCNPLVNLNYAVLLYNQGEKKNALAQYQEMEKKVSLLKDNSSLEFDSEMVEMAQKLGAALQVGEALVWTEPVKDPKSKHQTTSTSKPASFQQPLGSNQALGQAMSSAAAYRTLPSGAGGTSQFTKPPSLPLEPEPAVESSPTETSEQIREK [K438E]
MAEERVATRTQFPVSTESQKPRQKKAPEFPILEKQNWLIHLHYIRKDYEACKAVIKEQLQETQGLCEYAIYVQALIFRLEGNIQESLELFQTCAVLSPQSADNLKQVARSLFLLGKHKAAIEVYNEAAKLNQKDWEISHNLGVCYIYLKQFNKAQDQLHNALNLNRHDLTYIMLGKIHLLEGDLDKAIEVYKKAVEFSPENTELLTTLGLLYLQLGIYQKAFEHLGNALTYDPTNYKAILAAGSMMQTHGDFDVALTKYRVVACAVPESPPLWNNIGMCFFGKKKYVAAISCLKRANYLAPFDWKILYNLGLVHLTMQQYASAFHFLSAAINFQPKMGELYMLLAVALTNLEDIENAKRAYAEAVHLDKCNPLVNLNYAVLLYNQGEKKNALAQYQEMEKKVSLLKDNSSLEFDSEMVEMAQKLGAALQVGEALVWTKAVKDPKSKHQTTSTSKPASFQQPLGSNQALGQAMSSAAAYRTLPSGAGGTSQFTKPPSLPLEPEPAVESSPTETSEQIREK [P439A]
MAEERVATRTQFPVSTESQKPRQKKAPEFPILEKQNWLIHLHYIRKDYEACKAVIKEQLQETQGLCEYAIYVQALIFRLEGNIQESLELFQTCAVLSPQSADNLKQVARSLFLLGKHKAAIEVYNEAAKLNQKDWEISHNLGVCYIYLKQFNKAQDQLHNALNLNRHDLTYIMLGKIHLLEGDLDKAIEVYKKAVEFSPENTELLTTLGLLYLQLGIYQKAFEHLGNALTYDPTNYKAILAAGSMMQTHGDFDVALTKYRVVACAVPESPPLWNNIGMCFFGKKKYVAAISCLKRANYLAPFDWKILYNLGLVHLTMQQYASAFHFLSAAINFQPKMGELYMLLAVALTNLEDIENAKRAYAEAVHLDKCNPLVNLNYAVLLYNQGEKKNALAQYQEMEKKVSLLKDNSSLEFDSEMVEMAQKLGAALQVGEALVWTKEVKDPKSKHQTTSTSKPASFQQPLGSNQALGQAMSSAAAYRTLPSGAGGTSQFTKPPSLPLEPEPAVESSPTETSEQIREK [P439E]
